# Biological target: BSA-glycopolymer conjugate 10 (glycoprotein mimic 10) (bovine) (UniProt P02769)
# Test: SPR
# Sequence of UniProt P02769 (P02769 25-607): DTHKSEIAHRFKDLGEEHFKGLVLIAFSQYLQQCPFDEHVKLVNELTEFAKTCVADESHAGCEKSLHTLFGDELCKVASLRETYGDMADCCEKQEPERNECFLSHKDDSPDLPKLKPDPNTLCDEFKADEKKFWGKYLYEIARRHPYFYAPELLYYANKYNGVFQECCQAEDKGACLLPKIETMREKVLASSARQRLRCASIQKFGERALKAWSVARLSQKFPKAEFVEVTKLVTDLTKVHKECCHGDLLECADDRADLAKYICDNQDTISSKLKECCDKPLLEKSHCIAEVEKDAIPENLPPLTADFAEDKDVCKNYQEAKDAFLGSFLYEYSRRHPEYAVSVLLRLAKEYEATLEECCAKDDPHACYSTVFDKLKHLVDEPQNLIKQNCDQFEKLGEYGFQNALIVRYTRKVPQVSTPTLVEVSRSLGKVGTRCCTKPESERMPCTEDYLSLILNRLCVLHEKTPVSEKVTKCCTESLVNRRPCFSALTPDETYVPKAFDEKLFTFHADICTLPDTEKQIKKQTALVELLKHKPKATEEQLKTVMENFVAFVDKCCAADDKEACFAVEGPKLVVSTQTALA
substance,measurement,value
recombinant rat mannose-binding lectin (MBL) (from UniProt P19999 18-238) (natural protein),koff,0.00073 s⁻¹
same,kon,120000 M⁻¹ s⁻¹
